{
  "source": "paper PMC9101112",
  "origin": "cited, not measured here",
  "experiment_in_all_cases": "enzyme inhibition",
  "key": {"tynorphin": {"target": "tynorphin"}, "Trp-Val-Tyr-Pro-Trp": {"target": "Trp-Val-Tyr-Pro-Trp"}, "Ile-Val-Tyr-Pro-Trp": {"target": "Ile-Val-Tyr-Pro-Trp"}, "valorphin (Bos taurus)": {"target": "valorphin (Bos taurus)"}, "spinorphin (Bos taurus)": {"target": "spinorphin (Bos taurus)"}},
  "data": [
    {"substance": "DPP III (from UniProt O55096)", "values": [
      {"measurement": "Ki", "setting": "tynorphin", "value": 2670, "unit": "nM"},
      {"measurement": "Ki", "setting": "Trp-Val-Tyr-Pro-Trp", "value": 126, "unit": "nM"},
      {"measurement": "Ki", "setting": "Ile-Val-Tyr-Pro-Trp", "value": 100, "unit": "nM"}
    ]},
    {"substance": "DPP III (from UniProt Q9NY33)", "values": [
      {"measurement": "Ki", "setting": "valorphin (Bos taurus)", "value": 49, "unit": "nM"},
      {"measurement": "Ki", "setting": "spinorphin (Bos taurus)", "value": 2420, "unit": "nM"}
    ]}
  ]
}
